Test results from article PMC3938503.

Target: T1, CRPM (cAMP receptor protein of Mtb) (Mycobacterium tuberculosis) (UniProt P9WMH3)
T1 sequence: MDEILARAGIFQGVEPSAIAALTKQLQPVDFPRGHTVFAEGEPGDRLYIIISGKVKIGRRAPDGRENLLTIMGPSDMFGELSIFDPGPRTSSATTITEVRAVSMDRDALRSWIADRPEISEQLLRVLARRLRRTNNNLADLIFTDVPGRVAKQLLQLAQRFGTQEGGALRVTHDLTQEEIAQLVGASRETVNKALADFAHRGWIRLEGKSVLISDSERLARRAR
Assay: EMSA

Sequence: TCAGCGACCGTCAGCACGCCAGTTCAATACGGCGAGAAGCGCGTTCTCATCGAAAGTCGGTCAAGCTGGCGGACTGAGCACTGCTCTCCGGGCTTGACCGGGGCCTCTCCCAGCTACGCCCCGAGCGTGTGCCCTGCCGACACGCGGGAACAAGACCCGCACGACCAGCGTTAGCATGCTCAGTAAGTTGAGTGCATCAGGCTCAGCTCTGAATTGACAGCACACCGCCGTCGAGGCAAGCTTGAGCGGGGTGCACTCATCATAGTGCAGGAAAGAAGCTCTACATATTCAGGAGGATTCACC (double strand) [dnaK-303]
- binding signal (fold reduced vs dnaK-346): 2
